Data as given in the RNAGym collection of RNA variant scans (doi:10.1093/nar/gkz1192).

B1: CPEB3 Ribozyme (parent)
chain: UAACAGGGGGCCACAGCAGAAGCGUUCACGUCGCAGCCCCUGUCAGAUUCUGGUGAAUCUGCGAAUUCUGCUGUAUAUCUC

Variants of: B1
Experiment: self-cleavage, relative activity (ratio to wild type); higher = more cleavage; in vitro, sequencing
Procedure, shortened: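 Relative activity compares each variant's cleaved/total read fraction with that of the unmutated ribozyme. To get these fractions, barcoded CPEB3 ribozyme libraries from rounds of error-prone PCR were transcribed with T7 RNA polymerase for 5 hours at 37°C and then given 15 min of DNase I treatment before EDTA was added. The RNAs were reverse transcribed with template switching and sequenced on Illumina, and DNA sequencing linked barcodes to variants. A minimum of 5 reads applied, and three batches were averaged.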

Variant	self-cleavage
UAACAGGGGGCUACAGCAGAAGCGUUCACGUCGCAGCCCCUGUCAGAUUCUGGUGAAUCUGCCAAUUCUGCUGUAUAUCUC [C12U G63C]	1.26
UAACAGGGGGCUACAGCAGAAGCGUUCACGUCGCAGCCCCUGUCAGAUUCUGGUGAAUCUGCAAAUUCUGCUGUAUAUCUC [C12U G63A]	1.39
UAACAGGGGGCUACAGCAGAAGCGUUCACGUCGCAGCCUCUGUCAGAUUCUGGUGAAUCUGCGAAUUCUGCUGUAUAUCUC [C12U C39U]	1.26
UAACAGGGGGCUACAGCAGAAGCGCUCACGUCGCAGCCCCUGUCAGAUUCUGGUGAAUCUGCGAAUUCUGCUGUAUAUCUC [C12U U25C]	0.38
UAACAGGGGGCUACAGCAGAAGCGGUCACGUCGCAGCCCCUGUCAGAUUCUGGUGAAUCUGCGAAUUCUGCUGUAUAUCUC [C12U U25G]	0.7
UAACAGGGGGCUACAGCAGAAGCGUUCACGUCGCAGCCCCUGUAAGAUUCUGGUGAAUCUGCGAAUUCUGCUGUAUAUCUC [C12U C44A]	0.94
UAACAGGGGGCUACAGCAGAAGCCUUCACGUCGCAGCCCCUGUCAGAUUCUGGUGAAUCUGCGAAUUCUGCUGUAUAUCUC [C12U G24C]	0.16
UAACAGGGGGCUACAGCAGAAGCGUUCACGUCGCAGCCCCUGUCAGAUUCUGGCGAAUCUGCGAAUUCUGCUGUAUAUCUC [C12U U54C]	1.27
UAACAGGGGGCUACAGCAGAAGCGUUCACGUCGCAGCCCUUGUCAGAUUCUGGUGAAUCUGCGAAUUCUGCUGUAUAUCUC [C12U C40U]	1.12
UAACAGGGGGCUACAGCAGAAGCGUUCACGACGCAGCCCCUGUCAGAUUCUGGUGAAUCUGCGAAUUCUGCUGUAUAUCUC [C12U U31A]	1.11
UAACAGGGGGCUACAGCAGAAGCGUUCACGGCGCAGCCCCUGUCAGAUUCUGGUGAAUCUGCGAAUUCUGCUGUAUAUCUC [C12U U31G]	0.91
UAACAGGGGGCUACAGCAGAAGCGUUCACGCCGCAGCCCCUGUCAGAUUCUGGUGAAUCUGCGAAUUCUGCUGUAUAUCUC [C12U U31C]	1.28
UAACAGGGGGCUACAGCAGAAGCGUUCACGUCGAAGCCCCUGUCAGAUUCUGGUGAAUCUGCGAAUUCUGCUGUAUAUCUC [C12U C34A]	0.68
UAACAGGGGGCUACAGCAGAAGCGUUCACGUCGCAGCCCCUGUCAGAUUCUGAUGAAUCUGCGAAUUCUGCUGUAUAUCUC [C12U G53A]	1.18
UAACAGGGGGCUACAGCAGAAGCGUUCACGUCGCAGCCCCUGUCAGAUUCUGGUGAAUCUGCGAAUUCUGCUGUAUAUAUC [C12U C79A]	1.19
UAACAGGGGGCUACAUCAGAAGCGUUCACGUCGCAGCCCCUGUCAGAUUCUGGUGAAUCUGCGAAUUCUGCUGUAUAUCUC [C12U G16U]	0.75
UAACAGGGGGCUACACCAGAAGCGUUCACGUCGCAGCCCCUGUCAGAUUCUGGUGAAUCUGCGAAUUCUGCUGUAUAUCUC [C12U G16C]	0.79

Variant	self-cleavage
UAACAGGGGGCUACAGCAGAAGCGUUCACGUCGCAGCCCCUGUCAGAUUCAGGUGAAUCUGCGAAUUCUGCUGUAUAUCUC [C12U U51A]	1.26
UAACAGGGGGCUACAGCAGAAGCGUUCACGUCGCAGCCCCUGUCAGAUUCCGGUGAAUCUGCGAAUUCUGCUGUAUAUCUC [C12U U51C]	1.25
UAACAGGGGGCUACAGCAGAAGCGUUCACGUCGCACCCCCUGUCAGAUUCUGGUGAAUCUGCGAAUUCUGCUGUAUAUCUC [C12U G36C]	0.17
UAACAGGGGGCUACAGCAGAAGCGUACACGUCGCAGCCCCUGUCAGAUUCUGGUGAAUCUGCGAAUUCUGCUGUAUAUCUC [C12U U26A]	1.19
UAACAGGGGGCUACAGCAGAAGCGUCCACGUCGCAGCCCCUGUCAGAUUCUGGUGAAUCUGCGAAUUCUGCUGUAUAUCUC [C12U U26C]	0.84
UAACAGGGGGCUACAGCAGAAGCGUUCACGUCGCAGCCCCUGUCAGAUCCUGGUGAAUCUGCGAAUUCUGCUGUAUAUCUC [C12U U49C]	1.01
UAACAGGGGGCUACAGCAGAAGCGUUCACGUCGCAGCCCCUGUCAGAUUCUGGUGAAUCUGCGAAUUCUACUGUAUAUCUC [C12U G70A]	1.06
UAACAGGGGGCUACAGCAGAAGCGUUCACGUCGCAGCCCCUGUCAGAUUCUGGUGAAUCUGCGAAUUCUGCUGUAUAUCUU [C12U C81U]	1.22
UAACAGGGGGCUACAGCAGAAGCGUUCACGUCGCAGCCCCCGUCAGAUUCUGGUGAAUCUGCGAAUUCUGCUGUAUAUCUC [C12U U41C]	1.31
UAACAGGGGGCUACAGCAGAAGCGUUCACGUCGCAGCCCCAGUCAGAUUCUGGUGAAUCUGCGAAUUCUGCUGUAUAUCUC [C12U U41A]	0.24
UAACAGGGGGCUACAGCAGAAGCGUUCACGUCGCAGCCCCGGUCAGAUUCUGGUGAAUCUGCGAAUUCUGCUGUAUAUCUC [C12U U41G]	0.28
UAACAGGGGGCUACAGCAGAAGCGUUCACGUCGCAGCCCCUGCCAGAUUCUGGUGAAUCUGCGAAUUCUGCUGUAUAUCUC [C12U U43C]	1.11
UAACAGGGGGCUACAGCAGAAGCGUUCACGUCGCAGCCCCUGACAGAUUCUGGUGAAUCUGCGAAUUCUGCUGUAUAUCUC [C12U U43A]	1.24
UAACAGGGGGCUACAGCAGAAGCGUUCACGUCGCAGCCCCUGUCAGAUUCUGGUGAAUCUGCGAAUUCUGUUGUAUAUCUC [C12U C71U]	0.58
UAACAGGGGGCUACAGCAGAAGCGUUCACGUCGCAGCCCCUGUCAAAUUCUGGUGAAUCUGCGAAUUCUGCUGUAUAUCUC [C12U G46A]	0.68
UAACAGGGGGCUACAGCAGAAGCGUUCACGUCGCAGCCCCUGUCAGACUCUGGUGAAUCUGCGAAUUCUGCUGUAUAUCUC [C12U U48C]	1.18
UAACAGGGGGCUACAGCAGAAGCGUUCACGUCGCAGCCCCUGUCAGAGUCUGGUGAAUCUGCGAAUUCUGCUGUAUAUCUC [C12U U48G]	0.94
